The record followed here is patent US5871960, “Nucleic acids encoding CR5 polypeptide, vector and transformed cell thereof, and expression thereof” (Trustees of Dartmouth College).

The target of data set [1] is T1, CR8 bHLH domain (BHLHE40/DEC1) (human, UniProt O14503 SEQ:52-107).
T1 chain: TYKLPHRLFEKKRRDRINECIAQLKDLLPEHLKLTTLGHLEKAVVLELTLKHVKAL
In words: EMSA; 20 mM Hepes pH 7.6, 50 mM KCl, 10 mM DTT, poly(dI-dC), room temperature; self-competition partial at 50-fold and complete at 500-fold excess. The following applies: tags: N-terminal His tag (pRSET-A, Xpress System), 16.6 kD with tag; chain copies: 2 (homodimer, stated); label: 32P 5' end; 5' GATC overhangs. The protocol: One strand of the oligonucleotide was labeled with [g-32P]ATP by T4 polynucleotide kinase, hybridized with three times excess of the opposite strand, and purified using MERmaid oligonucleotide purification kit (BIO 101). 150 ng of the protein was allowed to bind to 50,000 cpm (equivalent to 0.5 ng in a typical experiment) of the labeled probe for 15 min at room temperature in 20 mM Hepes, pH 7.6, 50 mM KCl, 10 mM DTT, 5% glycerol, 0.5 mM EDTA and 0.3 mg/ml BSA. Two microgram of poly (dI-dC) was added to each […] reaction as on-specific DNA. Samples were analyzed on a 5% native polyacrylamide gel and visualized by autoradiography.
To examine the relative binding affinity, a large excess of non-labeled oligonucleotide was added to the reaction as competitor. […] 0.5 ng of the radiolabeled Class B probe was incubated with CR8 bHLH in the absence (lane 1) or the presence (lanes 2 to 7) of either 25 ng (50-fold excess; lanes 2, 4 and 6) and 250 ng (500-fold excess; lanes 3, 5 and 7) of unlabeled competitors. […] Thus, since all these experiments were done in the absence of other HLH proteins, it appears that CR8 bHLH bound to the Class B sequence as a homodimer with the highest affinity.
On the technique in general: In EMSA bound probe runs differently from free probe, usually more slowly.

Data set [2] addresses T1, CR8 bHLH domain (BHLHE40/DEC1). The experiment in a line: EMSA; same buffer. The following applies: tags: N-terminal His tag (pRSET-A, Xpress System), 16.6 kD with tag; chain copies: 2 (homodimer, stated); label: 32P 5' end; 5' GATC overhangs. The text has this:
(§1) The oligonucleotide probes used for the electrophoretic mobility shift assay (EMSA) are as follows: the Class A site used was the CACCTG hexamer (CAGGTG for the opposite strand) from the T5 promoter region of the Drosophila AS-C (Villares, R. et al. (1987) *Cell* 550:415–424) (5'-[…]-3' (SEQ ID NO:17) and 5'-[…]-3' (SEQ ID NO:18) for the opposite strand), the Class B site was the CACGTG hexamer from the USF binding site in the adenovirus major late promoter (Gregor, P. D. et al. (1990) *Genes & Dev.* 4:1730–1740) (5'-[…]-3' (SEQ ID NO:19) and 5'-[…]-3') (SEQ ID NO:20), the Class C site was the CACGCG hexamer (CGCGTG for the opposite strand) from the AS-C T5 promoter (5'-[…]-3' (SEQ ID NO:21) and 5'-[…]-3') (SEQ ID NO:22), and the N-box (CACNAG) was the double hexamer sequence from the Enhancer of split [E(spl)] m8 promoter (Klimbt, C. et al. (1989) *EMBO J.* 8:203–210) (5'-[…]-3' (SEQ ID NO:23) and 5'-[…]-3' (SEQ ID NO:24). One strand of the oligonucleotide was labeled with [g-32P]ATP by T4 polynucleotide kinase, hybridized with three times excess of the opposite strand, and purified using MERmaid oligonucleotide purification kit (BIO 101). […] Samples were analyzed on a 5% native polyacrylamide gel and visualized by autoradiography.

Data set [3] has as its target T2, daughterless (da) bHLH domain (Drosophila melanogaster, UniProt P11420 P11420:554-607).
T2 sequence: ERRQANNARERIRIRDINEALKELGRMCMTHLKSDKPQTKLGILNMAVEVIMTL
The experiment in a line: EMSA; positive control. The following applies: tags: supplied by Dr. Michael Caudy, Cornell University Medical College; label: 32P 5' end; 5' GATC overhangs.
Excerpt: as §1

B1: Class B E-box probe (USF site, adenovirus major late promoter) (dsDNA)
DNA 1: GATCGGTGTAGGCCACGTGACCGGGTGT
DNA 2: GATCACACCCGGTCACGTGGCCTACACC
For the molecule B1, the binding result in data set [1] was “binds”.

B2: Class A E-box probe (AS-C T5 promoter) (dsDNA)
DNA 1: GATCGTAGTCACGCAGGTGGGATCCCTA
DNA 2: GATCTAGGGATCCCACCTGCGTGACTAC
With B2, the binding result in data set [2] was “no binding”; in data set [3], “binds”.

B3: Class C probe (AS-C T5 promoter) (dsDNA)
DNA 1: GATCGGCAGCCGGCACGCGACAGGGCC
DNA 2: GATCGGCCCTGTCGCGTGCCGGCTGCC
As for B3, in data set [2], the binding result is “binds”.
